Reference: article PMC10177328, “High Intrinsic Oncogenic Potential in the Myc-Box-Deficient Hydra Myc3 Protein”

Biological target: T1, Hydra Myc3 bHLH-LZ (p13);Hydra Max bHLH-LZ (p13) (Hydra (strain  in the text …, UniProt A0A0H5FMB4;D0EM50 108-197;29-120, |))
T1 sequence 1: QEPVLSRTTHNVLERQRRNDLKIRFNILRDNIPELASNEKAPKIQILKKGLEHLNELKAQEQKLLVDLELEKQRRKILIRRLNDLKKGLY
T1 sequence 2: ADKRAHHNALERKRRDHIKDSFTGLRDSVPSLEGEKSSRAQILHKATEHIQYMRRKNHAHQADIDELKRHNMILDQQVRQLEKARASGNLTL
Experiment: EMSA; 0-2000 nM protein; EMSA: 10 mM Tris-HCl pH 7.5, 0.5 mM EDTA, 65 mM KCl, 5 mM MgCl2, 1 mM DTT, 100 ug/mL BSA, 10% glycerol, 25 C, 45 min; native 6% PAGE
Details: protein: recombinant;recombinant, tags: N-terminal initiator Met, C-terminal His6;N-terminal initiator Met, copies: 1;1, label: 32P, blunt

B1: myc2 promoter E-box 18-mer (dsDNA)
DNA 1: ATAGCTCACGTGTCAATA
DNA 2: TATTGACACGTGAGCTAT
Question: How did the Kd turn out when B1 was run?
Answer: Its Kd is 16.3 nM.
